Results taken from patent US20120149881A1.

Target: human IgE with the M1′ sequence (long form of membrane IgE) expressed on transduced BJAB or Daudi cells (human) (UniProt P01854)
Assay: number printed in the titration panel; FIG. 3M calls these numbers 'Scatchard Results' (BJAB-Long cells)

Sequence of human IgE with the M1′ sequence (long form of membrane IgE) expressed on transduced BJAB or Daudi cells (human) (P01854 116-546 I515L limits assumed): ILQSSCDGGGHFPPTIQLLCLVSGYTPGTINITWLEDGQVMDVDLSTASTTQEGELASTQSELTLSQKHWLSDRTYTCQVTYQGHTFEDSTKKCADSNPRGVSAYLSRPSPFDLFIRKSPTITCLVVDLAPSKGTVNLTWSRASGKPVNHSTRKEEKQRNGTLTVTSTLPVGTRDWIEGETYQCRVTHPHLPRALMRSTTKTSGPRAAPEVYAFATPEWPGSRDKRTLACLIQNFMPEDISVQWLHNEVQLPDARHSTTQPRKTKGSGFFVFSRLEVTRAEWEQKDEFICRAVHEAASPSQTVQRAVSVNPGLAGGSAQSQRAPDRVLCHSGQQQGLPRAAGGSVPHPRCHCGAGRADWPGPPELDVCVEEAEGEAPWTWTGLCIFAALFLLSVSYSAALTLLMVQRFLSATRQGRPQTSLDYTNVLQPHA

Kd: 0.04 nM
Substance: anti-human IgE antibody MAE11
